Patent publication US20100112057A1 (published 2010)

Columns and labels:
[1] = target: the molecule itself; assay: circular dichroism in PBS; concentration dependence of MRE at 222 nm fitted for the Kd of coiled-coil dimerization (unfolding/dissociation of the dimer)
[2] = target: T1, streptavidin (streptavidin-coated SA chip) (UniProt P22629 37-163, limits assumed); assay: SPR, Biacore 3000, streptavidin-coated (SA) chip
T1 construct: Surface protein of the commercial SPR chip
T1 sequence (P22629 37-163 limits assumed): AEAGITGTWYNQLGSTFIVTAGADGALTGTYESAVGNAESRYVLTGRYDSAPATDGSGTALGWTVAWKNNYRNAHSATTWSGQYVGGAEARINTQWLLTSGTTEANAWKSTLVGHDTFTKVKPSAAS

B1: PF4ZIP (peptide)
peptide: CGGRMKQLEDKVKKLLKKNYHLENEVARLKKLVG
notes: Free peptide made by Fmoc solid phase synthesis on Rink Amide MBHA resin; The measurement is the self-association of two such chains into a coiled-coil dimer; also called PF4ZIP peptide
**Q.** With B1 as the binder, how does the Kd [1] read?
**A.** 3.48 µM

**Q.** Does B1 bind [2]?
**A.** no binding
